Measurements taken from the supplement of paper PMC7125110.
± gives the standard error. For part of these data: Variants at the floor of the assay were thinned out.

B1: glmS ribozyme (parent)
chain: AUAAAAGCGCCAGAACUACAGAAAUGUAGUUGACGAGGAGGAGGUUUAUCGAAUUUUCGGCGGAUGCCUCCAAA

What was measured:
Settings in all cases: with glucosamine-6-phosphate
[1] = variants of: B1; experiment: kcat; higher = faster cleavage; RNA array
Method in brief: (§1)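 E. coli RNA polymerase transcribed barcoded ribozyme variants in situ on sequenced MiSeq chips, which were tracked via a hybridised Cy3 probe at 37 °C. Tiles were imaged over ~14 h after glucosamine-6-phosphate (40 μM to 10 mM) in HEPES/KCl/Mg(OAc)2 buffer was flowed in. Normalised per-tile medians were fit to one- or two-exponential decays for kobs, and kcat and KM came from weighted Michaelis–Menten fits.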

[2] = variants of: B1; experiment: self-cleavage kobs at 40 uM GlcN6P; higher = faster cleavage; RNA array
Method in brief: as §1

[3] = variants of: B1; experiment: self-cleavage kobs at 640 uM GlcN6P; higher = faster cleavage; RNA array
Method in brief: as §1

[4] = variants of: B1; experiment: self-cleavage kobs at 10000 uM GlcN6P; higher = faster cleavage; RNA array
Method in brief: as §1

[5] = variants of: B1; experiment: KM; higher = weaker cofactor use; RNA array
Method in brief: as §1

[6] = variants of: B1; experiment: self-cleavage kobs at 160 uM GlcN6P; higher = faster cleavage; RNA array
Method in brief: as §1

[7] = variants of: B1; experiment: self-cleavage kobs at 2500 uM GlcN6P; higher = faster cleavage; RNA array
Method in brief: as §1

| Variant | kcat [1] | self-cleavage kobs at 40 uM GlcN6P [2] | self-cleavage kobs at 640 uM GlcN6P [3] | self-cleavage kobs at 10000 uM GlcN6P [4] | KM [5] | self-cleavage kobs at 160 uM GlcN6P [6] | self-cleavage kobs at 2500 uM GlcN6P [7] |
| --- | --- | --- | --- | --- | --- | --- | --- |
| G38A G51U | < 1e-05 s⁻¹ | < 1e-05 s⁻¹ | < 1e-05 s⁻¹ | < 1e-05 s⁻¹ |  |  |  |
| G29C A52U C70G | 2.41e-05 ± 5.5e-06 s⁻¹ | < 1e-05 s⁻¹ |  |  |  |  |  |
| A14U U47C | 0.000442 ± 6.2e-05 s⁻¹ |  | 0.000138 ± 1.3e-05 s⁻¹ | 0.000442 ± 5.2e-05 s⁻¹ | 1430 ± 360 µM | 4.9e-05 ± 8.6e-06 s⁻¹ | 0.000238 ± 3.2e-05 s⁻¹ |
| A15C U45C | 0.000613 ± 8.6e-05 s⁻¹ |  | 6.81e-05 ± 1.6e-05 s⁻¹ | 0.000409 ± 7.5e-05 s⁻¹ | 5480 ± 1200 µM |  | 0.000176 ± 3.7e-05 s⁻¹ |
| U31C C71A | 0.000686 ± 0.00019 s⁻¹ | 3.6e-05 ± 1.1e-05 s⁻¹ | 0.00018 ± 1.9e-05 s⁻¹ | 0.00057 ± 7.8e-05 s⁻¹ | 1470 ± 630 µM | 7.42e-05 ± 8.6e-06 s⁻¹ | 0.000669 ± 9.6e-05 s⁻¹ |
| U47G U57G | 6.2e-05 ± 9.2e-06 s⁻¹ |  |  | 5.61e-05 ± 1.2e-05 s⁻¹ |  |  | 6.68e-05 ± 2.2e-05 s⁻¹ |
| A12G A15G | 0.000505 ± 0.00012 s⁻¹ |  | 7.71e-05 ± 9.2e-06 s⁻¹ | 0.000371 ± 3.2e-05 s⁻¹ | 4550 ± 1800 µM | 2.24e-05 ± 1e-05 s⁻¹ | 0.000155 ± 1.5e-05 s⁻¹ |
| A15G U45G | 0.00832 ± 0.00089 s⁻¹ | 0.000211 ± 3.4e-05 s⁻¹ | 0.0024 ± 0.00037 s⁻¹ | 0.00741 ± 0.001 s⁻¹ | 1730 ± 260 µM | 0.000643 ± 9.8e-05 s⁻¹ | 0.0044 ± 0.00084 s⁻¹ |
| A42C U69G | 0.00638 ± 0.0012 s⁻¹ | 0.00174 ± 0.00021 s⁻¹ | 0.00686 ± 0.0012 s⁻¹ | 0.00624 ± 0.00083 s⁻¹ | 129 ± 51 µM | 0.00249 ± 0.00048 s⁻¹ | 0.00742 ± 0.0017 s⁻¹ |
| U47C C70A | 0.000334 ± 9.1e-05 s⁻¹ |  | 0.000119 ± 2.1e-05 s⁻¹ | 0.000264 ± 4.8e-05 s⁻¹ |  |  | 0.000426 ± 9.7e-05 s⁻¹ |
| C8U C11U C34G A36U | 1.07e-05 ± 9.9e-07 s⁻¹ |  |  |  |  | < 1e-05 s⁻¹ |  |
| A12C G29C | 0.00327 ± 0.00068 s⁻¹ | 6.03e-05 ± 6.2e-06 s⁻¹ | 0.000508 ± 5.3e-05 s⁻¹ | 0.00271 ± 0.00022 s⁻¹ | 2770 ± 820 µM | 0.000193 ± 2.7e-05 s⁻¹ | 0.00139 ± 0.00023 s⁻¹ |
| C68A C71U | 1.62e-05 ± 4.6e-06 s⁻¹ |  |  |  |  |  | 2.17e-05 ± 9.8e-06 s⁻¹ |
| C10G G60C | 0.00245 ± 0.00047 s⁻¹ | 3.56e-05 ± 6.7e-06 s⁻¹ | 0.000733 ± 8.9e-05 s⁻¹ | 0.00198 ± 0.00023 s⁻¹ | 2180 ± 610 µM | 0.000167 ± 2.9e-05 s⁻¹ | 0.00117 ± 0.00023 s⁻¹ |
